{
  "source": "patent US20110263014A1",
  "about": "“Cleavage of Nanog by Caspases Mediates the Differentiation of Embryonic Stem Cells” (BAYLOR COLLEGE OF MEDICINE, priority 2008, published 2011)",
  "molecules": {"B1": {"name": "D67G mNanog: caspase cleavage-resistant mutant of mouse Nanog, mutation at position 67 (protein)", "chain": "MSVGLPGPHSLPSSEEASNSGNASSMPAVFHPENYSCLQGSATEMLCTEAASPRPSSEDLPLQGSPGSSTSPKQKLSSPEADKGPEEEENKVLARKQKMRTVFSQAQLCALKDRFQKQKYLSLQQMQELSSILNLSYKQVKTWFQNQRMKCKRWQKNQWLKTSNGLIQKGSAPVEYPSIHCSYPQGYLVNASGSLSMWGSQTWTNPTWSSQTWTNPTWNNQTWTNPTWSSQAWTAQSWNGQPWNAAPLHNFGEDFLQPYVQLQQNFSASDLEVNLEATRESHAHFSTPQALELFLNYSVTPPGEI"}},
  "key": {"[1]": {"target": "T1, caspase-9 (Homo sapiens, UniProt P55211)", "T1 sequence (P55211 1-416)": "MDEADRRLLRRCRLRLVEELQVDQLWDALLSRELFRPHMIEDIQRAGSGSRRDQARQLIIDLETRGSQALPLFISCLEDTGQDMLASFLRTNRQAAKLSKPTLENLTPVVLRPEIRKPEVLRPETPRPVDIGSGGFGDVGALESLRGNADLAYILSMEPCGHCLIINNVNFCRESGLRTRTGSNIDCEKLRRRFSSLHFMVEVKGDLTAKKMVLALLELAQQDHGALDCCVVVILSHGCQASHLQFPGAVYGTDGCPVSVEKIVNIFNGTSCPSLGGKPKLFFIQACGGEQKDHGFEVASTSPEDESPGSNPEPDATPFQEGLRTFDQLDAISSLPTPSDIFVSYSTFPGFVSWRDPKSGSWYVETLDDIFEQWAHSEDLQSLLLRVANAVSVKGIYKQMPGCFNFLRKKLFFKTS", "assay": "cleavage of immunoprecipitated mNanog by recombinant caspase-9", "type": "biochemical", "conditions": "protein immunoprecipitated from ES cells"}, "[2]": {"tested_on": "mouse ES cells", "assay": "colony formation at clonal density, alkaline phosphatase staining", "type": "cell-based", "conditions": "transfected mouse ES cells, 5000 cells/cm^2, with or without LIF, 3 days"}},
  "data": [
    {"molecule": "B1", "values": [
      {"measurement": "cleavage by caspase-9", "setting": "[1]", "result": "greatly diminished cleavage"},
      {"measurement": "number of undifferentiated (AP-positive) colonies", "setting": "[2]", "result": "substantially increased"}
    ]}
  ]
}
